According to US20220153847A1 (Chugai, published 2022):

How the values were obtained:
HLA-DQ6.3 on Ba/F3 cells = target: T1, HLA-DQ6.3 on Ba/F3 cells (human, UniProt P01920 33-230, limits assumed); experiment: FACS on Ba/F3-HLA-DQ6.3 cells, single antibody concentration, goat F(ab')2 anti-human IgG-PE
T1 construct: whole, on cells; also called Ba/F3-HLA-DQ6.3
T1 MHC II alpha: not shown
T1 MHC II beta: not shown

[1] = target: T2, HLA-DQ2.5/alpha 1b gliadin peptide complex on Ba/F3 cells (human); experiment: FACS, Ba/F3 cells; IC17=0%, DQN0139bb//IC17=100%;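 further: flow cytometry binding of anti-HLA-DQ antibodies at 5 µg/mL, incubated 30 min at room temperature with Ba/F3 lines presenting HLA-DQ/peptide complexes; antibody tested at 5 microgram/mL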
T2 construct: whole, on cells; also called Ba/F3-HLA-DQ2.5/alpha 1b gliadin; HLA-DQ2.5/a1b gliadin
Source text: (§1) The binding of anti-HLA-DQ antibodies to Ba/F3-HLA-DQ2.5, Ba/F3-HLA-DQ2.2, Ba/F3-HLA-DQ7.5, Ba/F3-HLA-DQ8, Ba/F3-HLA-DQ5.1, Ba/F3-HLA-DQ6.3, Ba/F3-HLA-DQ7.3, Ba/F3-HLA-DR, Ba/F3-HLA-DP, Ba/F3-HLA-DQ2.5/CLIP, Ba/F3-HLA-DQ2.5/HBV, Ba/F3-HLA-DQ2.5/Salmonella, Ba/F3-HLA-DQ2.5/TPO, Ba/F3-HLA-DQ2.5/M. bovis, Ba/F3-HLA-DQ2.5/alpha 1 gliadin, Ba/F3-HLA-DQ2.5/alpha 2 gliadin, Ba/F3-HLA-DQ2.5/gamma 1 gliadin, Ba/F3-HLA-DQ2.5/gamma 2 gliadin, Ba/F3-HLA-DQ2.5/omega 1 gliadin, Ba/F3-HLA-DQ2.5/omega 2 gliadin, Ba/F3-HLA-DQ2.5/BC hordein, Ba/F3-HLA-DQ2.5/alpha 3 gliadin, Ba/F3-HLA-DQ2.5/alpha 1b gliadin, Ba/F3-HLA-DQ2.5/gamma 4b gliadin, Ba/F3-HLA-DQ2.5/avenin 1, Ba/F3-HLA-DQ2.5/avenin 2, Ba/F3-HLA-DQ2.5/avenin 3, Ba/F3-HLA-DQ2.5/hordein 1, Ba/F3-HLA-DQ2.5/hordein 2, Ba/F3-HLA-DQ2.5/secalin 1, Ba/F3-HLA-DQ2.5/secalin 2, Ba/F3-HLA-DQ2.5/14mer 1, Ba/F3-HLA-DQ2.5/33mer gliadin, Ba/F3-HLA-DQ2.5/26mer gliadin, was tested. 5 microgram/mL of each of the anti-HLA-DQ antibodies was incubated with each cell line for 30 minutes at room temperature and washed with FACS buffer (2% FBS, 2 mM EDTA in PBS).

[2] = target: T3, HLA-DQ2.5/gamma 1 gliadin peptide complex on Ba/F3 cells (human); experiment: FACS, Ba/F3 cells; IC17=0%, DQN0139bb//IC17=100%;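 further: flow cytometry binding of anti-HLA-DQ antibodies at 5 µg/mL, incubated 30 min at room temperature with Ba/F3 lines presenting HLA-DQ/peptide complexes; antibody tested at 5 microgram/mL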
T3 construct: whole, on cells; also called Ba/F3-HLA-DQ2.5/gamma 1 gliadin; HLA-DQ2.5/g1 gliadin
Source text: as §1

[3] = target: T4, HLA-DQ2.5/omega 1 gliadin peptide complex on Ba/F3 cells (human); experiment: FACS, Ba/F3 cells; IC17=0%, DQN0139bb//IC17=100%;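 further: flow cytometry binding of anti-HLA-DQ antibodies at 5 µg/mL, incubated 30 min at room temperature with Ba/F3 lines presenting HLA-DQ/peptide complexes; antibody tested at 5 microgram/mL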
T4 construct: whole, on cells; also called Ba/F3-HLA-DQ2.5/omega 1 gliadin; HLA-DQ2.5/w1 gliadin
Source text: as §1

[4] = target: T5, HLA-DQ2.5/hordein 2 peptide complex on Ba/F3 cells (human); experiment: FACS, Ba/F3 cells; IC17=0%, DQN0139bb//IC17=100%;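 further: flow cytometry binding of anti-HLA-DQ antibodies at 5 µg/mL, incubated 30 min at room temperature with Ba/F3 lines presenting HLA-DQ/peptide complexes; antibody tested at 5 microgram/mL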
T5 construct: whole, on cells; also called Ba/F3-HLA-DQ2.5/hordein 2
Source text: as §1

[5] = target: T6, HLA-DQ2.5/BC hordein peptide complex on Ba/F3 cells (human); experiment: FACS, Ba/F3 cells; IC17=0%, DQN0139bb//IC17=100%
T6 construct: whole, on cells; also called Ba/F3-HLA-DQ2.5/BC hordein
Source text: as §1

[6] = target: T7, HLA-DQ2.5/alpha 2 gliadin peptide complex on Ba/F3 cells (human); experiment: FACS, Ba/F3 cells; IC17=0%, DQN0139bb//IC17=100%
T7 construct: whole, on cells; also called Ba/F3-HLA-DQ2.5/alpha 2 gliadin; HLA-DQ2.5/a2 gliadin
Source text: as §1

[7] = target: T8, HLA-DQ2.5/gamma 4b gliadin peptide complex on Ba/F3 cells (human); experiment: FACS, Ba/F3 cells; IC17=0%, DQN0139bb//IC17=100%
T8 construct: whole, on cells; also called Ba/F3-HLA-DQ2.5/gamma 4b gliadin; HLA-DQ2.5/g4b gliadin
Source text: as §1

[8] = target: T9, HLA-DQ2.5/26mer gliadin peptide complex on Ba/F3 cells (human); experiment: FACS, Ba/F3 cells; IC17=0%, DQN0139bb//IC17=100%
T9 construct: whole, on cells; also called Ba/F3-HLA-DQ2.5/26mer gliadin
Source text: as §1

[9] = target: T10, HLA-DQ2.5/14mer 1 peptide complex on Ba/F3 cells (human); experiment: FACS, Ba/F3 cells; IC17=0%, DQN0139bb//IC17=100%
T10 construct: whole, on cells; also called Ba/F3-HLA-DQ2.5/14mer 1
Source text: as §1

[10] = target: T11, HLA-DQ2.5/secalin 1 peptide complex on Ba/F3 cells (human); experiment: FACS, Ba/F3 cells; IC17=0%, DQN0139bb//IC17=100%
T11 construct: whole, on cells; also called Ba/F3-HLA-DQ2.5/secalin 1
Source text: as §1

[11] = target: T12, HLA-DQ2.5/gamma 2 gliadin peptide complex on Ba/F3 cells (human); experiment: FACS, Ba/F3 cells; IC17=0%, DQN0139bb//IC17=100%
T12 construct: whole, on cells; also called Ba/F3-HLA-DQ2.5/gamma 2 gliadin; HLA-DQ2.5/g2 gliadin
Source text: as §1

[12] = target: T13, HLA-DQ2.5/secalin 2 peptide complex on Ba/F3 cells (human); experiment: FACS, Ba/F3 cells; IC17=0%, DQN0139bb//IC17=100%
T13 construct: whole, on cells; also called Ba/F3-HLA-DQ2.5/secalin 2
Source text: as §1

[13] = target: T14, HLA-DQ2.5/alpha 3 gliadin peptide complex on Ba/F3 cells (human); experiment: FACS, Ba/F3 cells; IC17=0%, DQN0139bb//IC17=100%
T14 construct: whole, on cells; also called Ba/F3-HLA-DQ2.5/alpha 3 gliadin; HLA-DQ2.5/a3 gliadin
Source text: as §1

[14] = target: T15, HLA-DQ2.5/omega 2 gliadin peptide complex on Ba/F3 cells (human); experiment: FACS, Ba/F3 cells; IC17=0%, DQN0139bb//IC17=100%
T15 construct: whole, on cells; also called Ba/F3-HLA-DQ2.5/omega 2 gliadin; HLA-DQ2.5/w2 gliadin
Source text: as §1

[15] = target: T16, HLA-DQ2.5/33mer gliadin peptide complex on Ba/F3 cells (human); experiment: FACS, Ba/F3 cells; IC17=0%, DQN0139bb//IC17=100%
T16 construct: whole, on cells; also called Ba/F3-HLA-DQ2.5/33mer gliadin
Source text: as §1

[16] = target: T17, HLA-DQ2.5/hordein 1 peptide complex on Ba/F3 cells (human); experiment: FACS, Ba/F3 cells; IC17=0%, DQN0139bb//IC17=100%
T17 construct: whole, on cells; also called Ba/F3-HLA-DQ2.5/hordein 1
Source text: as §1

HLA-DQ2.2 on Ba/F3 cells = target: T18, HLA-DQ2.2 on Ba/F3 cells (human, UniProt P01909 24-216, limits assumed); experiment: FACS, Ba/F3 cells; IC17=0%, DQN0139bb//IC17=100%
T18 construct: whole, on cells; also called Ba/F3-HLA-DQ2.2
Source text: as §1
T18 MHC II alpha: not shown
T18 MHC II beta: not shown

[17] = target: T19, HLA-DQ2.5/alpha 1 gliadin peptide complex on Ba/F3 cells (human); experiment: FACS, Ba/F3 cells; IC17=0%, DQN0139bb//IC17=100%
T19 construct: whole, on cells; also called Ba/F3-HLA-DQ2.5/alpha 1 gliadin; HLA-DQ2.5/a1 gliadin
Source text: as §1

B1: IC17 (antibody, V domains shown)
VH: QVQLQQSGPQLVRPGASVKISCKASGYSFTSYWMHWVNQRPGQGLEWIGMIDPSYSETRLNQKFKDKATLTVDKSSSTAYMQLSSPTSEDSAVYYCALYGNYFDYWGQGTTLTVSS
VL: DIQMTQSSSSFSVSLGDRVTITCKASEDIYNRLAWYQQKPGNAPRLLISGATSLETGVPSRFSGSGSGKDYTLSITSLQTEDVATYYCQQYWSTPYTFGGGTKLEVK
notes: also called IC17 bivalent; TC17
B1: no binding (tested: 5 microgram/mL) (HLA-DQ6.3 on Ba/F3 cells).

B2: DQN0429cc//IC17 (bispecific antibody, human IgG1, kappa)
heavy 1: QEQLVESGGGLVQPEGSLTLTCTASGFSFSSSYYMCWVRQAPGKGLEWIGCIYTGSGSTDYATWVNGRFTISKTSSTTVTLQMTSLTVADTATYFCARDIGIDYNFWGPGTLVTVSSASTKGPSVFPLAPSSKSTSGGTAALGCLVKDYFPEPVTVSWNSGALTSGVHTFPAVLQSSGLYSLSSVVTVPSSSLGTQTYICNVNHKPSNTKVDKRVEPKSCDKTHTCPPCPAPELRRGPSVFLFPPKPKDTLMISRTPEVTCVVVDVSHEDPEVKFNWYVDGVEVHNAKTKPREEQYNSTYRVVSVLTVLHQDWLNGKEYKCKVSNKALPAPIEKTISKAKGQPREPQVYTLPPSREEMTKNQVSLTCLVKGFYPSDIAVEWESNGQPENNYKTTPPYLDSDGSFFLYSKLTVDKSRWQQGNVFSCSVMHEALHNHYTQESLSLSP
light 1: AFELTQTPSFVEARVGGTVTIKCQATQSISSYLNWYQQKPGQPPKLLIYYASTLASGVPSRFKGSGSGTEFTLTISGVECADAATYYCHYGISYVSFGGGTKVEIKRTVAAPSVFIFPPSDEQLKSGTASVVCLLNNFYPREAKVQWKVDNALQSGNSQESVTEQDSKDCTYSLSSTLTLSKADYEKHKVYACEVTHQGLSSPVTKSFNRGEC
heavy 2: QVQLQQSGPQLVRPGASVKISCKASGYSFTSYWMHWVNQRPGQGLEWIGMIDPSYSETRLNQKFKDKATLTVDKSSSTAYMQLSSPTSEDSAVYYCALYGNYFDYWGQGTTLTVSSASTKGPSVFPLAPSSKSTSGGTAALGCLVKDYFPEPVTVSWNSGALTSGVHTFPAVLQSSGLYSLSSVVTVPSSSLGTQTYICNVNHKPSNTKVDKRVEPKSCDKTHTCPPCPAPELRRGPSVFLFPPKPKDTLMISRTPEVTCVVVDVSHEDPEVKFNWYVDGVEVHNAKTKPREEQYNSTYRVVSVLTVLHQDWLNGKEYKCKVSNKALPAPIEKTISKAKGQPREPQVYTLPPSRKEMTKNQVSLTCLVKGFYPSDIAVEWESNGQPENNYKTTPPYLDSDGSFFLYSKLTVDKSRWQQGNVFSCSVMHEALHNHYTQKSLSLSP
light 2: DIQMTQSSSSFSVSLGDRVTITCKASEDIYNRLAWYQQKPGNAPRLLISGATSLETGVPSRFSGSGSGKDYTLSITSLQTEDVATYYCQQYWSTPYTFGGGTKLEVKRTVAAPSVFIFPPSDEQLKSGTASVVCLLNNFYPREAKVQWKVDNALQSGNSQESVTEQDSKDSTYSLSSTLTLSKADYEKHKVYACEVTHQGLSSPVTKSFNRGEC
In the case of B2, the “% MFI” value [1] is reported as 9.2%, the “% MFI” value [2] is reported as 12.6% and the “% MFI” value [3] is reported as 11.5%. For the same binder, the “% MFI” value [4] was 93.2%, the “% MFI” value [5] was 14.9% and the “% MFI” value [6] was 55.5%. For the same binder, the “% MFI” value [7] was 3.2%, the “% MFI” value [8] was 26.2% and the “% MFI” value [9] was 16.3%. The “% MFI” value [10] was 10.9%, the “% MFI” value [11] was 0.8% and the “% MFI” value [12] was 30.6%. For the same binder, the “% MFI” value [13] was 0.8%, the “% MFI” value [14] was 45.4% and the “% MFI” value [15] was 67.1%. For the same binder, the “% MFI” value [16] was 1.5%, the “% MFI” value (HLA-DQ2.2 on Ba/F3 cells) was 0.3% and the “% MFI” value [17] was 3.5%.
